Broadly, the Kd is a measure of binding affinity in units of concentration. Read a high Kd as a looser complex.

Experiment [1] addresses Ku70-Ku80 heterodimer deleted of its C-terminal regions (Ku70 1-544, Ku80 1-551) (human) (UniProt P12956). The experiment in a line: ITC.
Experiment [2] deals with full-length human Ku heterodimer (Ku70 1-609, Ku80 1-732) (human) (UniProt P12956). The experiment in a line: ITC. Background: Isothermal titration calorimetry measures the heat released or taken up as one component is titrated into another.

Consider “RAG2c peptide, containing motifs 1 and 2 of the RAG2 C-terminus (RAG2-KBM)”, for which, in experiment [1], the Kd worked out at 0.84 µM and the fold weaker affinity than with the 42 bp DNA worked out at 7 fold. For the same substance, in experiment [2], the Kd was 1.18 µM.

For the origin of these results see doi:10.1101/2023.12.12.570754.
